{"source": "patent US20230218743A1", "about": "(IMMUNITYBIO, published 2023)", "key": {"[1]": {"biological_target": "SARS-CoV-2 Spike protein on live SARS-CoV-2 (SARS-CoV-2, UniProt P0DTC2 14-1273)", "assay": "cell-based or functional assay"}, "RBD-SD1 [2]": {"biological_target": "T1, RBD-SD1 (SARS-CoV-2, UniProt P0DTC2 319-591)"}, "[3]": {"biological_target": "T2, SARS-CoV-2 Spike receptor binding domain, wild-type (SARS-CoV-2, UniProt P0DTC2 319-541)", "T2 construct": "domain: RBD", "assay": "Octet, IgG1 on AHC biosensor"}, "RBD-SD1 [4]": {"biological_target": "T1, RBD-SD1", "assay": "Octet, IgG1 on AHC biosensor"}, "RBD-SD1 [5]": {"biological_target": "T1, RBD-SD1", "assay": "epitope analysis, FIG. 4B"}, "RBD-SD1 [6]": {"biological_target": "T1, RBD-SD1", "remark": "listed apart in the source"}, "RBD-SD1 [7]": {"biological_target": "T1, RBD-SD1", "remark": "listed apart in the source"}}, "note": "Where two headings read alike, the source gives them in different places."}
{"binder": "N-612-004 (antibody, V domains shown) VH: EVQLVESGGGLVQPGGSLRLSCAASGFTFSSYYMHWVRQAPGKGLEWVSAISGSGGYTYYADSVKGRFTISRDNSKNTLYLQMNSLRAEDTAVYYCARDRDHAYDWGFDVWGQGTLVTVSS VL: DIQMTQSPSSLSASVGDRVTITCQASQDISNYLNWYQQKPGKAPKLLIYDASNLETGVPSRFSGSGSGTDFTFTISSLQPEDIATYYCQQWADWPLTFGQGTKVEIK", "values": [{"measurement": "live SARS-CoV-2 neutralization IC50", "setting": "[1]", "value": 0.194, "unit": "µg/mL"}]}
{"binder": "612-056 (scFv, V domains shown) VH: not shown VL: DIQMTQSPSSLSASVGDRVTITCQASQDISNYLNWYQQKPGKAPKLLIYDASNLETGVPSRFSGSGSGTDFTFTISSLQPEDIATYYCQQDAGTPLTFGQGTKVEIK", "values": [{"measurement": "Kd", "setting": "RBD-SD1 [2]", "value": 4.77, "unit": "nM"}]}
{"binder": "N-612-056 (antibody, V domains shown) VH: not shown VL: DIQMTQSPSSLSASVGDRVTITCQASQDISNYLNWYQQKPGKAPKLLIYDASNLETGVPSRFSGSGSGTDFTFTISSLQPEDIATYYCQQDAGTPLTFGQGTKVEIK", "values": [{"measurement": "live SARS-CoV-2 neutralization IC50", "setting": "[1]", "value": 0.855, "unit": "µg/mL"}]}
{"binder": "N-612-014 (antibody, V domains shown) VH: EVQLVESGGGLVQPGGSLRLSCAASGFTFSSYAMTWVRQAPGKGLEWVSYISGSGGGTYYADSVKGRFTISRDNSKNTLYLQMNSLRAEDTAVYYCARDRWASGWLAFDVWGQGTLVTVSS VL: not shown", "values": [{"measurement": "binding result", "setting": "[3]", "value": "no binding (tested: 2x dilution series starting at 100 nM)"}, {"measurement": "binding result", "setting": "RBD-SD1 [4]", "value": "no binding (tested: 2x dilution series starting at 100 nM)"}, {"measurement": "live SARS-CoV-2 neutralization IC50", "setting": "[1]", "value": 0.00791, "unit": "µg/mL"}]}
{"binder": "N-612-044 (antibody, V domains shown) VH: EVQLVESGGGLVQPGGSLRLSCAASGFTFSNYAMHWVRQAPGKGLEWVSAISGSGGSTYYADSVKGRFTISRDNSKNTLYLQMNSLRAEDTAVYYCARDLSFWLTYHLASAFDVWGQGTLVTVSS VL: not shown", "values": [{"measurement": "binding result", "setting": "[3]", "value": "no binding (tested: 2x dilution series starting at 100 nM)"}, {"measurement": "binding result", "setting": "RBD-SD1 [4]", "value": "no binding (tested: 2x dilution series starting at 100 nM)"}]}
{"binder": "N-612-007 (antibody, V domains shown) VH: EVQLVESGGGLVQPGGSLRLSCAASGFTFSNYAMHWVRQAPGKGLEWVSAISGNGGSTGYADSVKGRFTISRDNSKNTLYLQMNSLRAEDTAVYYCARDRWYVKNAFDVWGQGTLVTVSS VL: not shown", "values": [{"measurement": "binding result", "setting": "[3]", "value": "no binding (tested: 2x dilution series starting at 100 nM)"}, {"measurement": "binding result", "setting": "RBD-SD1 [4]", "value": "no binding (tested: 2x dilution series starting at 100 nM)"}, {"measurement": "live SARS-CoV-2 neutralization IC50", "setting": "[1]", "value": 0.0452, "unit": "µg/mL"}]}
{"binder": "N-612-017 (antibody, V domains shown) VH: EVQLVESGGGLVQPGGSLRLSCAASGFTFSSYAMHWVRQAPGKGLEWVSAIWGSGSNTYYADSVKGRFTISRDNSKNTLYLQMNSLRAEDTAVYYCARGRDLAAFTKTAFDVWGQGTLVTVSS VL: not shown", "values": [{"measurement": "live SARS-CoV-2 neutralization IC50", "setting": "[1]", "value": 0.0756, "unit": "µg/mL"}, {"measurement": "koff", "setting": "RBD-SD1 [5]", "value": 0.0019, "unit": "s⁻¹"}, {"measurement": "Kd", "setting": "RBD-SD1 [6]", "value": 6.19, "unit": "nM"}, {"measurement": "koff", "setting": "RBD-SD1 [6]", "value": 0.00627, "unit": "s⁻¹"}, {"measurement": "kon", "setting": "RBD-SD1 [6]", "value": "1.01e+06", "unit": "M⁻¹ s⁻¹"}]}
{"binder": "612-017 (scFv, V domains shown) VH: EVQLVESGGGLVQPGGSLRLSCAASGFTFSSYAMHWVRQAPGKGLEWVSAIWGSGSNTYYADSVKGRFTISRDNSKNTLYLQMNSLRAEDTAVYYCARGRDLAAFTKTAFDVWGQGTLVTVSS VL: not shown", "values": [{"measurement": "Kd", "setting": "RBD-SD1 [7]", "value": 10.2, "unit": "nM"}]}
{"binder": "N-612-002 (antibody, V domains shown) VH: EVQLVESGGGLVQPGGSLRLSCAASGFTFSSYTMHWVRQAPGKGLEWVSAISGSGGSTYYADSVKGRFTISRDNSKNTLYLQMNSLRAEDTAVYYCARDLFDFWGFDVWGQGTLVTVSS VL: not shown", "values": [{"measurement": "binding result", "setting": "[3]", "value": "no binding (tested: 2x dilution series starting at 100 nM)"}, {"measurement": "binding result", "setting": "RBD-SD1 [4]", "value": "no binding (tested: 2x dilution series starting at 100 nM)"}]}
